Laboratory results as given in the supplement of paper PMC10724198.

How the values were obtained:
[1] = tested on: Saccharomyces cerevisiae; experiment: protein stability index of tFT-peptide fusion in wild type (PSI (0-1 scale)); higher = more stable (slower turnover); conditions: genetic background: wild type
[2] = tested on: Saccharomyces cerevisiae; experiment: protein stability index of tFT-peptide fusion in deletion strain of DOA10 (PSI (0-1 scale)); higher = more stable (slower turnover)
Description: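 MPS profiling in S. cerevisiae of two library types built from selected 12-aa C-degron peptides (IN1, IN2, LN1, LN3, VN2, R1-R5, W1-W3, Atg1 and Rpa12 C-termini): saturation mutagenesis libraries and C-terminal +1 capping libraries (13 aa). Each peptide is fused to the C-terminus of a sfGFP-mCherry timer, after a GGGS linker. Cells are FACS-sorted into 8 mCherry/sfGFP bins and sequenced. PSI runs from 0 (unstable) to 1 (stable), measured once in wild type and in the das1Δ or doa10Δ background.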
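Wherever protein stability index of tFT-peptide fusion in deletion strain of DOA10 is given: PSI per variant is the weighted mean of its sequencing read distribution over the sorted stability bins, counting only variants with over 10 reads summed across bins.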
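Wherever protein stability index of tFT-peptide fusion in wild type is given: PSI derived as read-weighted mean over the 8 sorting bins, only variants exceeding 10 total reads kept, mCherry placed adjacent to the peptide and sfGFP distal.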

Sequence | protein stability index [1] | protein stability index [2]
RSLRVVLPLYFR | 0.178 | 0.679
GLYMCSVGCWFV | 0.4 | 0.467
CLVSLPILLFFRG | 0.0927 | 0.564
RSLRVCLPLYFR | 0.194 | 0.671
CLVSLPIWLFFR | 0.0275 | 0.58
GLYNCSVGCWFR | 0.414 | 0.674
RTTRLDAIYFRI | 0.498 | 0.658
GLYMCSWGCWFR | 0.296 | 0.665
GVYMCSVGCWFR | 0.276 | 0.622
RSLRVLLPLYRR | 0.624 | 0.673
CLYMCSVGCWFR | 0.276 | 0.584
AITLPMCPLLIR | 0.219 | 0.427
AITLHMCPLLLR | 0.271 | 0.62
GLYMKSVGCWFR | 0.257 | 0.673
YLYMCSVGCWFR | 0.317 | 0.586
LITLPMCPLLLR | 0.349 | 0.626
AITLPMCNLLLR | 0.29 | 0.683
CLVTLPILLFFR | 0.048 | 0.576
GLYMCSVGVWFR | 0.198 | 0.453
RSLRRLLPLYFR | 0.466 | 0.683
CLVSLPILLFFRI | 0.0568 | 0.469
AITLPMCPHLLR | 0.645 | 0.687
